Reference: US20250304927A1, “PRO-PEPTIDE VARIANTS FOR MODULATING ACTIVITY OF TRANSGLUTAMINASES” (CURIE CO. INC., priority 2022, published 2025)

T1: thermostable variant of Streptomyces mobaraensis transglutaminase (Streptomyces mobaraensis, UniProt P81453 79-407)
T1 sequence: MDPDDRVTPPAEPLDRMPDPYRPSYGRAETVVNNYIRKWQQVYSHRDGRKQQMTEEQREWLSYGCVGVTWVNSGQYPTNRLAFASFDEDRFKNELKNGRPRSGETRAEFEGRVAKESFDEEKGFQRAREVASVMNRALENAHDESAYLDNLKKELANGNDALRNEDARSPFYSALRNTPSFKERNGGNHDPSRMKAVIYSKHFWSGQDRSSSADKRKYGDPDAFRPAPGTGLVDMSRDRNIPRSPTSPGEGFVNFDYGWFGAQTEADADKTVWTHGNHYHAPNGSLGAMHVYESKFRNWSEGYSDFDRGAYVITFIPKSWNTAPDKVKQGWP


target: T1, thermostable variant of Streptomyces …; assay: cell-based or functional assay

| Binder | Improvement in pH responsiveness of inhibitory peptide relative to WT [fold] |
| --- | --- |
| MDNGAGEETKSYAETYRLTADDVANINALNESAPAASSAGPSFRA [pro-peptide truncation variant ΔP46] | > 1.2 |
| MDNGAGEETKSYAETYRLTADDVANINALNESAPAAS [pro-peptide truncation variant ΔS38-P46] | > 1.2 |
| MINGAGEETKSYAETYRLTADDVANINALNESAPAASSAGPSFRAP [pro-peptide variant D2I] | > 1.2 |
| MDNGAGEETKSYAYTYRLTADDVANINALNESAPAASSAGPSFRAP [pro-peptide variant E14Y] | > 5 |
| MDNGAGEETKSYAETYRLTADDVANINALNESAPAASSAGPSFRAF [pro-peptide variant P46F] | > 1.2 |
| MDNGAGCETKSYAETYRLTADDVANINALNESAPAASSAGPSFRAP [pro-peptide variant E7C] | > 1.2 |
| MSNGAGEETKSYAETYRLTADDVANINALNESAPAASSAGPSFRAP [pro-peptide variant D2S] | > 1.2 |
| MDNGAGEETKSYAETYRLTADDVANINALNESAPAASSAGPSFRAM [pro-peptide variant P46M] | > 1.2 |
| MDNGAGEETKSYAETYRLTADSVANINALNESAPAASSAGPSFRAP [pro-peptide variant D22S] | > 1.2 |
| MDNGAGEETKSYAETYRVTADDVANINALNESAPAASSAGPSFRAP [pro-peptide variant L18V] | > 1.2 |
| MDNGAGEETKAYAETYRLTADDVANINALNESAPAASSAGPSFRAP [pro-peptide variant S11A] | > 1.2 |
| MDNGAGEETKSYAETYRLTATDVANINALNESAPAASSAGPSFRAP [pro-peptide variant D21T] | > 1.2 |
| MDNGAGNETKSYAETYRLTADDVANINALNESAPAASSAGPSFRAP [pro-peptide variant E7N] | > 5 |
| MDNGAGEETKSYAETYRLTADDVANINALNESAPAASSAGPSFRAG [pro-peptide variant P46G] | > 5 |
| MQNGAGEETKSYAETYRLTADDVANINALNESAPAASSAGPSFRAP [pro-peptide variant D2Q] | > 1.2 |
| MDNGAGEETKSRAETYRLTADDVANINALNESAPAASSAGPSFRAP [pro-peptide variant Y12R] | > 1.2 |
| MDNGAGEETKTYAETYRLTADDVANINALNESAPAASSAGPSFRAP [pro-peptide variant S11T] | > 1.2 |
| MDNGAGEETKSYAETYRGTADDVANINALNESAPAASSAGPSFRAP [pro-peptide variant L18G] | > 1.2 |
| MDNGAGEETKSYAETYRCTADDVANINALNESAPAASSAGPSFRAP [pro-peptide variant L18C] | > 1.2 |
| MDNGAGEETKSYAETYRRTADDVANINALNESAPAASSAGPSFRAP [pro-peptide variant L18R] | > 1.2 |
| MTNGAGEETKSYAETYRLTADDVANINALNESAPAASSAGPSFRAP [pro-peptide variant D2T] | > 1.2 |
| MPNGAGEETKSYAETYRLTADDVANINALNESAPAASSAGPSFRAP [pro-peptide variant D2P] | > 5 |
| MDNGAGEETKSYAKTYRLTADDVANINALNESAPAASSAGPSFRAP [pro-peptide variant E14K] | > 5 |
| MDNGAGEESKSYAETYRLTADDVANINALNESAPAASSAGPSFRAP [pro-peptide variant T9S] | > 1.2 |
| MDNGAGSETKSYAETYRLTADDVANINALNESAPAASSAGPSFRAP [pro-peptide variant E7S] | > 5 |
| MDNGAGEETKSYAETYRLTADDVANINALNESAPAASRAGPSFRAP [pro-peptide variant S38R] | > 1.2 |
| MDNGAGEETKSYAETYRLTADDVCNINALNESAPAASSAGPSFRAP [pro-peptide variant A24C] | > 1.2 |

target: T1, thermostable variant of Streptomyces …; assay: cell-based or functional assay; remark: another data set of the same source

| Binder | Improvement in binding affinity of inhibitory peptide relative to WT [fold] |
| --- | --- |
| MDNGAGEETKSYAETYRLTADDVANINALNESAPAASSAGPSFRA [pro-peptide truncation variant ΔP46] | > 1.2 |
| MINGAGEETKSYAETYRLTADDVANINALNESAPAASSAGPSFRAP [pro-peptide variant D2I] | > 1.2 |
| MDNGAGHETKSYAETYRLTADDVANINALNESAPAASSAGPSFRAP [pro-peptide variant E7H] | > 1.2 |
| MDNGAGCETKSYAETYRLTADDVANINALNESAPAASSAGPSFRAP [pro-peptide variant E7C] | > 1.2 |
| MSNGAGEETKSYAETYRLTADDVANINALNESAPAASSAGPSFRAP [pro-peptide variant D2S] | > 1.2 |
| MDNGAGRETKSYAETYRLTADDVANINALNESAPAASSAGPSFRAP [pro-peptide variant E7R] | > 1.2 |
| MDNGAGDETKSYAETYRLTADDVANINALNESAPAASSAGPSFRAP [pro-peptide variant E7D] | > 1.2 |
| MDNGAGNETKSYAETYRLTADDVANINALNESAPAASSAGPSFRAP [pro-peptide variant E7N] | > 1.2 |
| MQNGAGEETKSYAETYRLTADDVANINALNESAPAASSAGPSFRAP [pro-peptide variant D2Q] | > 1.2 |
| MDNGAGEETKSYAETYRLTADDVANVNALNESAPAASSAGPSFRAP [pro-peptide variant I26V] | > 1.2 |
| MDNGAGEETKSYAETYRFTADDVANINALNESAPAASSAGPSFRAP [pro-peptide variant L18F] | > 1.2 |
| MDNGAGEVTKSYAETYRLTADDVANINALNESAPAASSAGPSFRAP [pro-peptide variant E8V] | > 1.2 |
| MDNGAGEITKSYAETYRLTADDVANINALNESAPAASSAGPSFRAP [pro-peptide variant E8I] | > 1.2 |
| MDNGAGEETKSYAETYRLTADHVANINALNESAPAASSAGPSFRAP [pro-peptide variant D22H] | > 1.2 |
| MTNGAGEETKSYAETYRLTADDVANINALNESAPAASSAGPSFRAP [pro-peptide variant D2T] | > 1.2 |
| MDNGAGEETKSYAEQYRLTADDVANINALNESAPAASSAGPSFRAP [pro-peptide variant T15Q] | > 1.2 |
| MFNGAGEETKSYAETYRLTADDVANINALNESAPAASSAGPSFRAP [pro-peptide variant D2F] | > 1.2 |
| MPNGAGEETKSYAETYRLTADDVANINALNESAPAASSAGPSFRAP [pro-peptide variant D2P] | > 1.2 |
| MDNGAGEEEKSYAETYRLTADDVANINALNESAPAASSAGPSFRAP [pro-peptide variant T9E] | > 1.2 |
| MDNGAGEEDKSYAETYRLTADDVANINALNESAPAASSAGPSFRAP [pro-peptide variant T9D] | > 1.2 |
| MDNGAGEEPKSYAETYRLTADDVANINALNESAPAASSAGPSFRAP [pro-peptide variant T9P] | > 1.2 |
| MDNGAGEECKSYAETYRLTADDVANINALNESAPAASSAGPSFRAP [pro-peptide variant T9C] | > 1.2 |
| MDNGAGEEIKSYAETYRLTADDVANINALNESAPAASSAGPSFRAP [pro-peptide variant T9I] | > 1.2 |
| MDNGAGSETKSYAETYRLTADDVANINALNESAPAASSAGPSFRAP [pro-peptide variant E7S] | > 1.2 |
| MDNGAGEETKSYAETYRLTADNVANINALNESAPAASSAGPSFRAP [pro-peptide variant D22N] | > 1.2 |
| MDNGAGEETKSYAETYRLTAKDVANINALNESAPAASSAGPSFRAP [pro-peptide variant D21K] | > 1.2 |
| MDNGAGEETKSYAETYRLTADDVMNINALNESAPAASSAGPSFRAP [pro-peptide variant A24M] | > 1.2 |
